According to article doi:10.1101/2020.05.15.096610 (bioRxiv, 2020):
Where two headings read alike, the source gives them in different places.

How the values were obtained:
cryo-EM structure [1] = biological target: the molecule itself; experiment: cryo-EM structure
cryo-EM structure [2] = biological target: the molecule itself; experiment: cryo-EM structure; remark: listed apart in the source

Protein	binding result (cryo-EM structure [1])	other results
Campylobacter jejuni MotB (natural protein, UniProt Q0PBH3 1-247, looked up) MAKKHKCPECPAGEKWAVPYADFLSLLLALFIALWAISKTNPAKVEALKTEFVKIFDYTSTQTVKEESKTQEKYKGAAKEESDELKSLKQMTMTQQETIKRLQAALDQSDNQVALNLPSKVEFERGSAQIVSADIQDYLKRMAELTTYLPPQAKIEIRGYTDNSDSIIRSYELAYQRAENVLKYFIEGGANLKNISIKSYGLNNPINGNPQTLENNRVEIYFKVDTADTSTQKSVLELINKIGTKAP		stoichiometry N (cryo-EM structure [1]): 2
Campylobacter jejuni MotB(Δ41-60) (natural protein, UniProt Q0PBH3 1-247, looked up) MAKKHKCPECPAGEKWAVPYADFLSLLLALFIALWAISKTTQTVKEESKTQEKYKGAAKEESDELKSLKQMTMTQQETIKRLQAALDQSDNQVALNLPSKVEFERGSAQIVSADIQDYLKRMAELTTYLPPQAKIEIRGYTDNSDSIIRSYELAYQRAENVLKYFIEGGANLKNISIKSYGLNNPINGNPQTLENNRVEIYFKVDTADTSTQKSVLELINKIGTKAP	binds	
Campylobacter jejuni MotB(Δ41-60, D22N) (natural protein, UniProt Q0PBH3 1-247, looked up) MAKKHKCPECPAGEKWAVPYANFLSLLLALFIALWAISKTTQTVKEESKTQEKYKGAAKEESDELKSLKQMTMTQQETIKRLQAALDQSDNQVALNLPSKVEFERGSAQIVSADIQDYLKRMAELTTYLPPQAKIEIRGYTDNSDSIIRSYELAYQRAENVLKYFIEGGANLKNISIKSYGLNNPINGNPQTLENNRVEIYFKVDTADTSTQKSVLELINKIGTKAP	binds	
Vibrio alginolyticus PomB (natural protein, UniProt O06874 1-315, looked up) MDDEDNKCDCPPPGLPLWMGTFADLMSLLMCFFVLLLSFSEMDVLKFKQIAGSMKFAFGVQNQLEVKDIPKGTSIIAQEFRPGRPEPTPIDVIMQQTMDITQQTLEFHEGESDRAGGTKRDEGKLTGGQSPATSTQNNESAEADMQQQQSKEMSQEMETLMESIKKALEREIEQGAIEVENLGQQIVIRMREKGAFPEGSAFLQPKFRPLVRQIAELVKDVPGIVRVSGHTDNRPLDSELYRSNWDLSSQRAVSVAQEMEKVRGFSHQRLRVRGMADTEPLLPNDSDDNRALNRRVEISIMQGEPLYSEEVPVIQ		stoichiometry N (cryo-EM structure [2]): 2
